The values below come from patent US20240181075A1 (EMERGENCE THERAPEUTICS, published 2024).

The target in test [1] is T1, Nectin-4 extracellular domain Fc fusion recombinant protein (Nec4-VCC) (human, UniProt Q96NY8 32-349).
T1 construct: extracellular domain; also called Nectin-4-VCC-Fc; not shown: Fc part
T1 sequence (looked up): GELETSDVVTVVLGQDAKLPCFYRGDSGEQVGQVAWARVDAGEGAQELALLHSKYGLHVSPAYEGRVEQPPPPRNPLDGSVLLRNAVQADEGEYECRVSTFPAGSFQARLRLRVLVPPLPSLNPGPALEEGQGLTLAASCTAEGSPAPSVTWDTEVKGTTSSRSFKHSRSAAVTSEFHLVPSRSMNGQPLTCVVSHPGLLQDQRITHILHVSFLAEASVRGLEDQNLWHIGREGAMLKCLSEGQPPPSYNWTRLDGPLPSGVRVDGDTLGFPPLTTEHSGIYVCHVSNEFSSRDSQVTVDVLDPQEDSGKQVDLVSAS
As to the kind of experiment: statement in the legend of the competition ELISA on coated Nec4-VCC. As to the method:
Competition assay was performed by ELISA. [0435] Ninety-six-wells plates were coated with 5 μg/mL of Nectin-4 extracellular domain Fc fusion recombinant protein (Nec4-VCC) overnight at 4° C.
(§1) One hundred μL of peroxidase substrate was added (One Step ABST, Pierce), and OD was red at 405 nm.
For orientation: ELISA stands for enzyme-linked immunosorbent assay.

The target in test [2] is T2, Nectin-1 extracellular domain Fc fusion recombinant protein (Nec1-VCC) (UniProt Q15223 31-355, limits assumed).
T2 construct: extracellular domain; also called Nectin-1-VCC-Fc; not shown: Fc part
T2 sequence (looked up): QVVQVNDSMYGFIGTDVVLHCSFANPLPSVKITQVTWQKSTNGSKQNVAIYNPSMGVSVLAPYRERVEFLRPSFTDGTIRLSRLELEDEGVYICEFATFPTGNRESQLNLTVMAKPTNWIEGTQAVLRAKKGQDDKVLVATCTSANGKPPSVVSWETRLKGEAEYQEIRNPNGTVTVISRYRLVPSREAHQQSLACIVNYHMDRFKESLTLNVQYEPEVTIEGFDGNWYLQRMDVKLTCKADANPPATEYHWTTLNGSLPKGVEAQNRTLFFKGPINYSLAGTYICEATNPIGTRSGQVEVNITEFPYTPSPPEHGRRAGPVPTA
Kind of test: ELISA, plate coated with Nec1-VCC Fc fusion protein. The protocol:
(§2) Detection by ELISA. [0433]
as §1

Test [3] concerns the target T3, Nectin-4 IgV-like domain Fc fusion recombinant protein (Nec4-V) (human, UniProt Q96NY8 32-146, limits assumed).
T3 construct: domain: IgV-like domain; also called Nectin-4-V-Fc; not shown: Fc part
T3 sequence (looked up): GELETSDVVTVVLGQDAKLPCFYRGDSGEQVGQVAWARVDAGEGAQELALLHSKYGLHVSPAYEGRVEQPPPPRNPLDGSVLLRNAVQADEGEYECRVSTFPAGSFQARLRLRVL
Kind of test: ELISA, plate coated with Nec4-V Fc fusion, peroxidase-conjugated antibody. As to the method:
as §2, §1

Test [4] has as its target T1, Nectin-4 extracellular domain Fc fusion …. As to the kind of experiment: ELISA, plate coated with Nec4-VCC Fc fusion, peroxidase-conjugated antibody. As to the method:
as §2, §1

Test [5] concerns the target T4, human Nectin-4 on cells (CHO cells transfected with human Nectin-4 cDNA); SUM190 tumor cells; normal … (human, UniProt Q96NY8 32-510).
T4 construct: whole, on cells; The cell type that carried it is named under assay in each row; also called PVRL4; PRR4
T4 sequence (looked up): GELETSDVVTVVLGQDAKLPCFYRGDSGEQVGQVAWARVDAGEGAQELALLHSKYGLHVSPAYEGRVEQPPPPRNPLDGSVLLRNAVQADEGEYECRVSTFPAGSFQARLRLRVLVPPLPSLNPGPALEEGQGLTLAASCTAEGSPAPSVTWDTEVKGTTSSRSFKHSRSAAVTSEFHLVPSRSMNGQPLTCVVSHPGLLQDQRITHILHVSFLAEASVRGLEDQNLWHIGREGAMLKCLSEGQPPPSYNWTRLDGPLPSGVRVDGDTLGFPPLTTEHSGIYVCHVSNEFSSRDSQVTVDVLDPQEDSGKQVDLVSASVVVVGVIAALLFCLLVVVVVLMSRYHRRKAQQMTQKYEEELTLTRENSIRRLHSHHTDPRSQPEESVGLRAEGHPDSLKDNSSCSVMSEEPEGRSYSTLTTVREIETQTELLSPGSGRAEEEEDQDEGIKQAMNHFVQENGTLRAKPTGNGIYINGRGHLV
Kind of test: flow cytometry on normal differentiated human keratinocytes (NHEK), compared with SUM190 tumor cells.

In test [6] the target is T5, human Nectin-4 with N-terminal Flag epitope tag, expressed on transfected MDA-MB231 cells (human, UniProt Q96NY8 32-510).
T5 construct: whole, on cells; also called PVRL4 cDNA in p3XFLR4.C1
T5 sequence (looked up): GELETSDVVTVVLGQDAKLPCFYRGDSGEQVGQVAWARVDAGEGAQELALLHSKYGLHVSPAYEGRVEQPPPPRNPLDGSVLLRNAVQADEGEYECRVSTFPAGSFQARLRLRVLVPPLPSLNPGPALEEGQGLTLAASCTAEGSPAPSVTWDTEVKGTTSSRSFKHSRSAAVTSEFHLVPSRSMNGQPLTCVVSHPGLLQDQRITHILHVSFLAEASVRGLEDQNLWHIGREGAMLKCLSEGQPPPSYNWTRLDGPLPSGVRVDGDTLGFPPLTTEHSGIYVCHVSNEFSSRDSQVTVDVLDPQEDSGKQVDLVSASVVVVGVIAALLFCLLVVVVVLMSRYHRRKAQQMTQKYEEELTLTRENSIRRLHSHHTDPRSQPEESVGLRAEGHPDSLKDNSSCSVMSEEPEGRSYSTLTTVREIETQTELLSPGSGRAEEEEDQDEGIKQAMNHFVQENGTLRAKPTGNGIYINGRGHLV
As to the kind of experiment: flow cytometry on MDA-MB231 cells transfected with N-terminal Flag-tagged Nectin-4, anti-human Fc PE detection. The text has this:
Detection by flow cytometry. [0431] […] Cells were then stained with phycoerythrin conjugate goat anti human Fc antibody. The normalized mean fluorescence intensity is shown. […] Mean fluorescence intensity is represented.
On the technique in general: In flow cytometry, cells or beads pass a laser one at a time.

The target in test [7] is T4, human Nectin-4 on cells (CHO cells …). Kind of test: flow cytometry on normal differentiated human keratinocytes (NHEK); reference antibody of the comparison.

B1: HA22 (Enfortumab), human monoclonal anti-Nectin-4 antibody (antibody, V domains shown)
VH: EVQLVESGGGLVQPGGSLRLSCAASGFTFSSYNMNWVRQAPGKGLEWVSYISSSSSTIYYADSVKGRFTISRDNAKNSLSLQMNSLRDEDTAVYYCARAYYYGMDVWGQGTTVTVSS
VL: DIQMTQSPSSVSASVGDRVTITCRASQGISGWLAWYQQKPGKAPKFLIYAASTLQSGVPSRFSGSGSGTDFTLTISSLQPEDFATYYCQQANSFPPTFGGGTKVEIK
notes: also called Enfortumab (HA22); HA22 mAb
With B1, the binding result in test [1] was “binds”.

B2: Ch-15A7.5 (chimeric anti-Nectin-4 monoclonal antibody 15A7.5) (antibody, V domains shown)
VH: EVKLVESGGGLVQPGGSRKLSCAASGFTFSNYGMAWVRQAPGKGPEWVAFISNLAYGINYADTVTGRFTISRENAKNTLYLEMRSLRSEDTAMYYCARGARATGWFAYWGQGTLVTVSA
VL: DIVMTQSQKFMSTSIGDRVSVTCKASQNVDTHVAWYQEKPGQSPKALIYSASYRYSGVPDRFTGSGSGTDFTLTISNVQSEDLADYFCQQYNSYPLTFGGGTKLEIK
notes: also called Ch-15A7.5 mAb; Ch-15A7 mAb
For the molecule B2, the binding result is given as “no binding” in test [2]; “binds” in test [3]; “binds” in test [4]; “binds” in test [5]; “binds” in test [6].

B3: Ch-5A12.2 (chimeric anti-Nectin-4 monoclonal antibody 5A12.2) (antibody, V domains shown)
VH: QIQLQQSGAELVKPGASVTLSCKTSGFTFNSMYISWLKQKPGQSLEWIAWIYAGTGGTRFNQKFTGKVQLTVDTSSSTAYMQFSSLTTDDSAIYYCAIRSGFVPMDYWGQGTSVTVSS
VL: SIVMTQTPKFLLVSAGDRVTITCKASQSVSNDVAWYQQKPGQSPKLLIYYASNRYTGVPDRFTGSGYGTDFTFTISTVQAEDLAVYFCQQDYSSPWTFGGGTKLEIK
notes: also called Ch-5A12.2 mAb; 5A12.2 mAb
B3: the binding result in test [7] and in test [6] was “binds” throughout.
